In assay [1] the target is T1, ROBO2 (Homo sapiens, UniProt Q9HCK4).
T1 construct: expressed in transfected cells; host or cells: Cos7
T1 sequence (Q9HCK4 22-1378): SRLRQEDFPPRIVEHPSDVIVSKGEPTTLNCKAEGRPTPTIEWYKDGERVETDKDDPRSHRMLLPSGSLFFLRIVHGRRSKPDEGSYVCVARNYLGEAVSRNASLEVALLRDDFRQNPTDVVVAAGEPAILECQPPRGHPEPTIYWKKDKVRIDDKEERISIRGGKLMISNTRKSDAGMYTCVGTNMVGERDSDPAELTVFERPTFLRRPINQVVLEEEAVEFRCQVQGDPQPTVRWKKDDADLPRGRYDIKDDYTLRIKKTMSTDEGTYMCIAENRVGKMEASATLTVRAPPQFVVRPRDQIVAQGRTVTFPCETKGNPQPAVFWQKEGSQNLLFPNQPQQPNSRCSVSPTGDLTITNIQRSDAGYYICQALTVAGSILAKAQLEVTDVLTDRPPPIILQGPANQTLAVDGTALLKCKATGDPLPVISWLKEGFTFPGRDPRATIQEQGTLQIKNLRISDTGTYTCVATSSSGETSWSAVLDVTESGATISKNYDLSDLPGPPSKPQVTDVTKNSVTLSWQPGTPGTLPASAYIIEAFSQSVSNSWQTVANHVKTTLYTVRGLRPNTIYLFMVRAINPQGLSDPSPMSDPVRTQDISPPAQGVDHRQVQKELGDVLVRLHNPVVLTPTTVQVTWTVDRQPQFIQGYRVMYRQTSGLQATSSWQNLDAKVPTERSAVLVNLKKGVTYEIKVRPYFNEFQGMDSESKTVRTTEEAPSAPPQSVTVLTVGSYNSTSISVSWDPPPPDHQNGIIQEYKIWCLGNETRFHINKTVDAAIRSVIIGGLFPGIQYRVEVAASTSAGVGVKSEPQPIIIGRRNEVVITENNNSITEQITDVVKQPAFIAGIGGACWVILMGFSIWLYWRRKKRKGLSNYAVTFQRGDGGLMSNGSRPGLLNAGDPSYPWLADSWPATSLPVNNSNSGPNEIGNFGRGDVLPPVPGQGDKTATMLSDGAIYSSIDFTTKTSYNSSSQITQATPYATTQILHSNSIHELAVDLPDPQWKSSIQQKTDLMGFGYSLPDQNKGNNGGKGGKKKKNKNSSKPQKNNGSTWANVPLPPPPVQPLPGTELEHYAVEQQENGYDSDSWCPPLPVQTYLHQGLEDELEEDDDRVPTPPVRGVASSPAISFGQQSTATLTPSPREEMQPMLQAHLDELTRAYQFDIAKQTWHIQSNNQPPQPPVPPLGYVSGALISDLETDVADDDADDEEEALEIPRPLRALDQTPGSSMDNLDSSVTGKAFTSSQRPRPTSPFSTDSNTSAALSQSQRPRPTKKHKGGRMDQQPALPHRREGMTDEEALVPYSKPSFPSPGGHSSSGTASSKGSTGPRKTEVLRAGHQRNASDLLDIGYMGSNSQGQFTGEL
In words: ECD binding assay on Cos7 cells overexpressing Robo2. The conditions noted are these: Cos7 cells overexpressing Robo2, sodium azide, 1H incubation, immunostaining. As to the method: Soluble ROBO1 ECD fragments ROBO1-Ig2 and ROBO1-Ig5 generated in the presence of heparin were used in a dome assay. […] Because treatment with heparin had only a modest positive effect on ROBO1 ECD production and a deleterious effect on their function (FIG. 6C, E), the use of heparin to generate soluble ROBO1 ECD fragments was not pursued. The ability of a ROBO1 ECD fragment to bind ROBO2 receptors was tested by overexpressing Robo2 in Cos7 cells, treating cells with sodium azide to prevent protein internalization and then incubating cells with ROBO1-Ecto-HA 1H prior to fixation and immunostaining.

Assay [2] has as its target T2, DCC (Homo sapiens, UniProt P43146).
T2 construct: expressed in transfected cells
Kind of assay: ECD binding assay on cells overexpressing DCC. As to the method:
FIG. 6: ROBO1 extracellular domains. (A) Cartoon showing domain structure of the ROBO1 extracellular domain (ECD) panel (B) Western blot of ROBO1 ECDs and control DCC ECDs in lysates and conditioned media of HEK cells overexpressing plasmid constructs. (C) Dot blot assay of media (left) and quantification (right) of ROBO1-Ig5 secretion from HEK cells overexpressing Robo-Ig5 in the absence and presence of heparin (300 ng/ml). […] (F) ECD binding assay using ROBO1-Ecto and cells overexpressing ROBO2 (top, green) and cells overexpressing DCC (bottom, green). ROBO1-Ecto-HA (red) binds to ROBO2, but not to DCC.

T2 sequence (P43146 26-1447, species assumed): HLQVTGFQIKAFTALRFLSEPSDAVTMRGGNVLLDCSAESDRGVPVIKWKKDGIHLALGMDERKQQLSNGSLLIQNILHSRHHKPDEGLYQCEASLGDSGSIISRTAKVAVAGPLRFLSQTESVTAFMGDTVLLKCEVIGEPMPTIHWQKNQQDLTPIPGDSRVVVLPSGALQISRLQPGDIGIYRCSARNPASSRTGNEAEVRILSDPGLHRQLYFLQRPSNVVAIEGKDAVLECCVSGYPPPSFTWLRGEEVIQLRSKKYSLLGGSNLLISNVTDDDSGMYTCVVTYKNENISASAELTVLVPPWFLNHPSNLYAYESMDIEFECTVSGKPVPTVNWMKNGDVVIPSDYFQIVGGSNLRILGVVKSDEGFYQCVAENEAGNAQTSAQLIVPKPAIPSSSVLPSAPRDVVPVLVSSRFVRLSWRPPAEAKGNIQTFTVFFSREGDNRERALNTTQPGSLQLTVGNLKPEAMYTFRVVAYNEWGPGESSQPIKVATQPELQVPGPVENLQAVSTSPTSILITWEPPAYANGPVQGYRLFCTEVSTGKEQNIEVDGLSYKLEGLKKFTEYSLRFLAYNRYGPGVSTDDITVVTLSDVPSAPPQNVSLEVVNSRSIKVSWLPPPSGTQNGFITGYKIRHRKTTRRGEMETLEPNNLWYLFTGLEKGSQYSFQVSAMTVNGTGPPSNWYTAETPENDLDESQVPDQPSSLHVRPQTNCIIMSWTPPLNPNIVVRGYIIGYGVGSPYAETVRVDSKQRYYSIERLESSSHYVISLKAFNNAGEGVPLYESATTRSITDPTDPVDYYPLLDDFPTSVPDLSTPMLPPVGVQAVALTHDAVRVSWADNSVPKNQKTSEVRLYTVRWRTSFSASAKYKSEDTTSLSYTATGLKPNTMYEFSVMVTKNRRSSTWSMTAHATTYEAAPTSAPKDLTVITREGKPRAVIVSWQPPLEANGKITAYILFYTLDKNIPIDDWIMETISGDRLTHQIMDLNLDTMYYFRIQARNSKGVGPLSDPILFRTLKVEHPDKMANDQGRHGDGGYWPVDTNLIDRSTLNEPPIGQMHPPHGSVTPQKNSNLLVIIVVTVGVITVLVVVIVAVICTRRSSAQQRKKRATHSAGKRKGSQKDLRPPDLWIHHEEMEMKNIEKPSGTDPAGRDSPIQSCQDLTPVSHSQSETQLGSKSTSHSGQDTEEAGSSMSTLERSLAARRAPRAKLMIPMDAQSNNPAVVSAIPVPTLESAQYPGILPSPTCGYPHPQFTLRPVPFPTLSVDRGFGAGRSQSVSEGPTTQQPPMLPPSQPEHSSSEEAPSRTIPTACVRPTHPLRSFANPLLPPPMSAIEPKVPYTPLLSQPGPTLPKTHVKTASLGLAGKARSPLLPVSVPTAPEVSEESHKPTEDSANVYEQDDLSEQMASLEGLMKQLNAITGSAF

B1: ROBO1-Ecto-HA: ROBO1-Ecto fused to HA (hemagglutinin) tag (protein)
chain: SRLRQEDFPPRIVEHPSDLIVSKGEPATLNCKAEGRPTPTIEWYKGGERVETDKDDPRSHRMLLPSGSLFFLRIVHGRKSRPDEGVYICVARNYLGEAVSHNASLEVAILRDDFRQNPSDVMVAVGEPAVMECQPPRGHPEPTISWKKDGSPLDDKDERITIRGGKLMITYTRKSDAGKYVCVGTNMVGERESEVAELTVLERPSFVKRPSNLAVTVDDSAEFKCEARGDPVPTVRWRKDDGELPKSRYEIRDDHTLKIRKVTAGDMGSYTCVAENMVGKAEASATLTVQEPPHFVVKPRDQVVALGRTVTFQCEATGNPQPAIFWRREGSQNLLFSYQPPQSSSRFSVSQTGDLTVTNVQRSDVGYYICQTLNVAGSIITKAYLEVTDVIADRPPPVIRQGPVNQTVAVDGTLTLSCVATGSPVPTILWRKDGVLVSTQDSRIKQLESGVLQIRYAKLGDTGRYTCTASTPSGEATWSAYIEVQEFGVPVQPPRPTDPNLIPSAPSKPEVTDVSKNTVTLLWQPNLNSGATPTSYIIEAFSHASGSSWQTVAENVKTETFAIKGLKPNAIYLFLVRAANAYGISDPSQISDPVKTQDVPPTTQGVDHKQVQRELGNVVLHLHNPTILSSSSVEVHWTVDQQSQYIQGYKILYRPSGASHGESEWLVFEVRTPTKNSVVIPDLRKGVNYEIKARPFFNEFQGADSEIKFAKTLEEAPSAPPRSVTVSKNDGNGTAILVTWQPPPEDTQNGMVQEYKVWCLGNETRYHINKTVDGSTFSVVIPSLVPGIRYSVEVAASTGAGPGVKSEPQF
modifications: left off: small tags and cut ends
notes: ROBO1-Ecto fused to HA (hemagglutinin) tag
As to B1, in assay [1], the “binding to ROBO2” value was “binds”. Moreover, the “binding to DCC” value in assay [2] is listed as “not to DCC”.

The values are drawn from patent US12139531B2, “Compositions and methods useful in promoting milk production” (The Regents of the University of California, priority 2019, dated 2024).
